Measured values: patent US10400224B2, “Enantioselective modified esterase enzyme and method for the production thereof” (CORPORACIÓN CORPOGEN, priority 2014, dated 2019)

Columns and labels:
[1] = Kinetic resolution of pNP ester of naproxen (1H-NMR, chiral HPLC); assay type: biochemical
Experimental: (§1) The enantioselectivity was evaluated by means of the kinetic resolution of the substrates phenyl ester naproxen and pNP ester naproxen. The procedure was the following (Chow et al., 2012):
(§2) i) 69.29 mL of a buffer phosphate solution (100 mM, pH 8.0) was mixed with 8 mL of DMSO-d6 and 2.64 mL of the stock solution of the substrate (10 mM in DMSO-d6). To this solution, it was added 200 μl of the enzyme to evaluate. The reaction was performed under continuous agitation at a temperature between 45° C. and 75° C. for 40 minutes.
(§3) ii) The reaction was stopped by adding a concentrated solution of HCl (pH 1.0). Immediately, the naproxen was extracted with MTBE twice with 20 ml of the solution.
(§4) iii) The extracted mixture of naproxen was dried under reduced pressure conditions. The transformation of this substrate was determined by means of MRI spectrographs (1H-NMR, Hydrogen-1 nuclear magnetic resonance) in which were compared the signals generated by the methyl groups from the naproxen and its corresponding esters.
(§5) iv) After measuring the samples containing the naproxen and the phenyl ester of naproxen, these samples were mixed with MTBE, 20 mL and extracted again with 20 mL, from an aqueous solution of NaHCO3.
(§6) v) The aqueous phase was acidified with HCl and it was extracted with MTBE, 20 ml. The extracted naproxen was derivatized to methyl ester through the addition of a solution of diazomethane 0.5 M in ethanol. The solvent was removed by a reduced pressure.
(§7) vi) The enantiomeric excess of the methyl ester ibuprofen was determined by means of chiral liquid high efficiency chromatography (HPLC—High performance liquid chromatography) (Dionex) using a Chiralcel ODH, under the following conditions • A mobile phase n-heptane: isopropanol with a ratio of 99:1 • A flow of 0.5 mL.min^1 • Reading at 225 nm.
(§8) vii) The retention time for the (S) and (R) enantiomers of methyl ester naproxen were of 22.84 and 19.39 minutes, respectively.
viii) The samples evaluated by NMR, underwent an additional test for determining the ee, by means of chiral HPLC with a CD detector (Jasco) using a Hyperclone ODS C18 column, under the following conditions: • A mobile phase of acetonitrile:water in a ratio of 80:20. • Flow of 0.5 mL.min^−1 • Reading of 220 nm
ix) The retention time for the p-NP ester of naproxen was of 3.83 minutes. The CD signal was measured at 280 nm.

[2] = Kinetic resolution of racemic phenyl ester of ibuprofen (chiral HPLC); assay type: biochemical
Experimental: An evaluation was performed analytical scale to deter mine the kinetic resolution of phenyl ester substrates of ibuprofen and naproxen (Chow et al., 2012). The evaluation of the kinetic resolution for phenyl ester substrates of ibuprofen was developed in the following manner:
i) A solution with 17.32 Ml of buffer phosphate (100 mM, pH 8.0) was mixed with 2 ml. of DMSO and 0.66 mil of the stock solution of the substrate (10 mM in DMSO). To this solution it was added 100 μl of the enzyme to evaluate. The reaction was made with continuous agitation at a temperature from 45° C. and 75° C. for 80 minutes.
ii) The reaction was stopped by the addition of a concentrated solution of HCl (pH 1.0). Immediately thereafter, it was extracted the ibuprofen with methyl tertiary butyl ether (MTBE) twice with 20 ml of the solution.
iii) The ibuprofen was derivatized as a methyl ester after having added a solution of diazomethane 0.5 M in ethanol. The solvent was removed by means of reduction of pressure.
iv) The enantiomeric excess of the phenyl ester Ibuprofen and of the methyl ester ibuprofen was determined by means of chiral liquid high efficiency chromatography (HPLC—High performance liquid chromatography) (Dionex) using a Chiralpak IA column, under the following conditions: • A mobile phase n-heptane:isopropanol with a ratio of 99.8:0.2 • A flow of 0.5 mL.min^1 • Reading at 210 nm.
v) The retention time for the enantiomer (S) methyl ester ibuprofen was of 10:23 minutes, while that for the enantiomer (R) methyl ester ibuprofen was of 11:17 minutes. The retention time for the enantiomers (S) and (R) phenyl ester ibuprofen were of 16.32 and 18.07 respectively.

[3] = Optimum temperature and pH of the modified enzyme (p-nitrophenyl ester assay); assay type: biochemical
Experimental: The activity of the modified enzyme was determined spectrophotometrically at 405 nm in a range of temperatures between 45 and 75° C., using p-nitro phenyl of other chains C6 to C10 (Sigma-Aldrich) as substrate. One unit of esterase activity was defined as the capacity of the enzyme to release 1 μmol min^−1 of p-nitrophenol under the essay conditions. The molar absorbance coefficient was of 16.900 M^−1 cm^−1. The mixture consisted of 448 μl of the Tris-HCl 50 mM buffer at 9.0 pH that contained 50 μl of p-nitrophenyl diluted in isopropanol and 2 μl of the solution stock of the protein. All the assays were made by triplicate and the average was calculated.
The optimum temperature of the modified enzyme was evaluated between 30 and 90° C. in buffer Tris HCl 50 mM (pH 9.0) exposing the enzyme to 30 minutes in each evaluated temperature (Suzuki et al., 2004, Park et al., 2006). […]
It was evaluated the activity of the enzyme by means of the p-nitrophenyl ester with some modifications, since for evaluating different pH values were used different buffer solutions, depending of the pH to evaluate: buffer acetate 50 mM (pH 5.0-6.0) buffer succinate (pH 4.0-5.5), MES (pH5.5-7.0). […] The protein was incubated for 15 minutes at a temperature higher than 45° C. and lower than 75° C. and then the quantification was made.

[4] = Kinetic resolution of phenyl ester of naproxen (1H-NMR, chiral HPLC); assay type: biochemical
Experimental: as §1, §2, §3, §4, §5, §6, §7, §8

[5] = Storage of the purified modified protein in Tris-HCl buffer; assay type: physicochemical; details: Tris-HCL buffer at 9.0 pH, 4° C.
Experimental: Thereafter, the product of the elution was concentrated in Amicon columns of 30 kDa. This concentration process was strictly necessary in order to be able to rule out the elution solution in which it was the protein and permit to leave it in a Tris-HCL buffer at a 9.0 pH, which permits stability to the modified protein. […] The purity of the protein was evaluated in a SDS-PAGE gel at 12% (p/v).

[6] = calculated by method of Kroutil et al, 1997

B1: 499EST: esterase enzyme of SEQ No. 2 from strain USBA-GBX-499 with a C-terminal tail of 5-10 histidine residues (protein, listed as Acidicaldus sp.)
chain: MPLDRHAEAVLEMIRQSGRPPYETLTPAEARGLYRQAREVLAPEPPPVAEVRDLSLPHPAGPALPTRLYRPQQGGAPLPLLVYFHGGGWVIGDLETHDVVCREIANRAGIGVLSIDYRLAPEHKFPAAVEDAFAATRWAAKEAPSLGFDPARLAVGGDSAGGNLAAVVSLLAREQGGPSIAFQLLIYPATDLGMTHPSHQRWAEGYLLTRPTMEWFRAHYLTDPTREIADWRVSPLRAPDLRGLPPAFVLTAEYDPLVDEGEDYAARLAAAGVPVATHRVPGMIHGFLTMGKAIPAANEALGLIAERLRAALA
modifications: C-terminal histidine tail; amino acid sequence of 499EST
[1]; 1H-RMN
  conversion: 49%
[1]; HPLC
  ee of naproxen product: 31%
[1]; naproxen esters
  enantioselectivity lower for the pNP ester than for the phenyl ester: 5 times
[1]; pNP ester of naproxen
  enantioselectivity E: 2
[2]; [6]
  conversion c: 56%
  enantioselectivity E: 4
[2]; chiral HPLC
  ee of the substrate (phenyl ester of ibuprofen): 50%
[2]; chiral HPLC, product derivatized as methyl ester
  ee of the product: 40%
[3]
  pH of optimum activity: 9.0
  temperature of optimum activity: 55 °C
[4]; 1H-RMN
  conversion: 52%
[4]; HPLC
  ee of naproxen product: 65%
[4]; phenyl ester of naproxen
  enantioselectivity E: 10
[5]
  storage time: several months
